This passage reports Kd results from paper PMC9674253.

In series [1] the target is NPAS4 (1-348);ARNT2 (50-439) (mouse;mouse, UniProt Q8BGD7;Q61324 1-348;50-439, |). Kind of series: fluorescence polarization.
For series [2], the target named is NPAS4 (1-348);ARNT (82-465) (mouse;mouse, UniProt Q8BGD7;P53762 1-348;82-465, |). Put plainly: fluorescence polarization. In general terms: In fluorescence polarisation assays a small probe gives low polarisation when free and higher when bound to something large.
NPAS4 (1-348);ARNT (82-465), sequence (Q8BGD7 1-348, chain 1 of 2): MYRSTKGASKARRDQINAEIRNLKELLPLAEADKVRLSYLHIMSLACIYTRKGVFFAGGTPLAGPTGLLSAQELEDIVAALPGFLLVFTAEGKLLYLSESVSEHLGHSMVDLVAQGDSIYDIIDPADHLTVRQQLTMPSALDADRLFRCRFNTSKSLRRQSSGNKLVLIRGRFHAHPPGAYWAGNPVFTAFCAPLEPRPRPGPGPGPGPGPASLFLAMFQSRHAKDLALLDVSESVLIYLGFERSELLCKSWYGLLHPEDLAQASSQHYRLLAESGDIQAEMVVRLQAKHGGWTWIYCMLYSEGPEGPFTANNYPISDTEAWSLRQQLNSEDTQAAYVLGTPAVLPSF
NPAS4 (1-348);ARNT (82-465), sequence (P53762 82-465, chain 2 of 2): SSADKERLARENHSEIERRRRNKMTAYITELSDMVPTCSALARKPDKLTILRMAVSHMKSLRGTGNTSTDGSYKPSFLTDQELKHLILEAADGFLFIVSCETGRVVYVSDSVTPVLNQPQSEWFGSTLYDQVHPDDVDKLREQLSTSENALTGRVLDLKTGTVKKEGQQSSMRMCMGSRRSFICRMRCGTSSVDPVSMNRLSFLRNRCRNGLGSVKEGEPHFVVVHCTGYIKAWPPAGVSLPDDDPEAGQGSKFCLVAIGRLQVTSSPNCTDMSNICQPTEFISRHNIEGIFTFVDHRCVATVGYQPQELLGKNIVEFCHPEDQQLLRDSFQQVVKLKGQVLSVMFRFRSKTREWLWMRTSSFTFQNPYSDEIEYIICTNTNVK

NPAS4 (1-348);ARNT2 (50-439), sequence (Q8BGD7 1-348, chain 1 of 2): as the sequence (Q8BGD7 1-348, chain 1 of 2) above
NPAS4 (1-348);ARNT2 (50-439), sequence (Q61324 50-439, chain 2 of 2): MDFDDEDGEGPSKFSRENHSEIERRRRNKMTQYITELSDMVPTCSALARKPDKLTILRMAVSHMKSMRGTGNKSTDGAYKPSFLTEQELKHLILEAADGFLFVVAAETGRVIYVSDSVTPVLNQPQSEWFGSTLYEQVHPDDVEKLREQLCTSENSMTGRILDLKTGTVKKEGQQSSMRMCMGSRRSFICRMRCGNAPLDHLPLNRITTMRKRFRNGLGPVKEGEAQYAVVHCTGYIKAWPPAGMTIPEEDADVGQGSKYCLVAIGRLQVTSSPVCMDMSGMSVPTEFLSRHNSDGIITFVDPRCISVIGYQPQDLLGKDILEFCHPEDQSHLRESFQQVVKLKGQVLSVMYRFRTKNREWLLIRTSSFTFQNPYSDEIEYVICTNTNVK

B1: 21-mer NPAS4 response element (FP) (dsDNA)
DNA 1: GGATGAGGTCGTGAGTGATGA
DNA 2: TCATCACTCACGACCTCATCC
Regarding B1, the values for the Kd in series [1] and in series [2] were 46.8 ± 3.9 nM and 13.1 ± 0.4 nM, respectively.

In general, Kd refers to the free concentration of one partner at which half of the binding sites on the other are occupied at equilibrium, for simple one-to-one binding.
